{
  "source": "patent US20260200999A1",
  "about": "“SYNTHETIC TRANSCRIPTION FACTORS” (ETH ZURICH, priority 2022, published 2026)",
  "system": "Response Element-driven mCerulean reporter (MTERF1 binding sites, SEQ ID NO: 42)",
  "experiment": "mCerulean reporter co-transfection with HumTAP constructs in HEK293 cells (flow cytometry)",
  "format": "cell-based, human",
  "details": "HEK293; for output expression / transcriptional activation: N-terminally truncated MTERF1 fused to RelA430-551, reporter SEQ ID NO: 48 (Example 1, FIG. 5B); for reporter (mCerulean) expression: TAD fused to MTERF158-399, pEF1a-driven, Example 4, FIG. 9B, C; for reporter expression, times less than with MTERF158-399: truncated MTERF1 DBD",
  "source_text": "To construct a promoter with Response Elements/MTERF1 binding sites driving the gene of interest, the inventors placed MTERF1 binding sites (SEQ ID NO: 42) upstream a minimal TATA box (SEQ ID NO: 103). An mCerulean fluorescent reporter representing the gene of interest (Gol) was placed downstream of the TATA box. Each of these is referred to as a reporter construct. Five different reporter constructs were made comprising respectively 3, 5, 7, 9, and 11 MTERF1 binding sites 6 base pairs apart upstream of the TATA box (FIG. 1A; SEQ ID NO: 41, 44, 45, 46 and 47, respectively). They were co-transfected with the MTF construct into Hela cells. […] Using flow cytometry, relative mCerulean levels were measured and calculated by normalization to the transfection control in Hela cells (FIG. 1C). […] Next, reporter plasmids with varying spacer lengths (0, 6 bp and 10 bp; SEQ ID NO: 48, 44 and 49, respectively) (FIG. 1F) between a fixed number of REs (i.e. 5 REs/MTERF1 binding sites) were transfected with the MTF construct. […] This was confirmed using flow cytometry (FIG. 1H). […]\nWith the goal to engineer stronger and possibly shorter HumTAPs, the inventors fused the MTERF158-399 peptide (SEQ ID NO: 1) to a variety of transactivation domains and transfected HEK293 cells with those constructs and the reporter construct comprising 5×RE/MTERF1 binding sites without a spacer between them (SEQ ID NO: 48).\nFirst, MTERF158-399 (SEQ ID NO: 1) was fused with different subsequences of RelA. RelA361-551 (SEQ ID NO: 27) corresponds to the sequence used in the construction of the bacterial-derived synthetic TF PIT2 [19], while RelA342-551 (SEQ ID NO: 29) contains all annotated transactivation domains according to domain annotation under Uniprot Q04206 (https://www.uniprot.org/uniprotkb/Q04206/entry). […] We also fused MTERF158-399 (SEQ ID NO: 1) to a set of transactivation domains previously found to be strong activators with a small genetic footprint (FIG. 4B).\nTo further decrease the DNA footprint of a HumTAP, the inventors investigated to what degree the DNA binding domain may be reduced. To this end, the inventors created 3 versions of MTERF1 subsequences fused to RelA430-551 (SEQ ID NO: 3). MTERF173-399 (SEQ ID NO: 7), MTERF1104-399 (SEQ ID NO: 9), and MTERF1135-399 (SEQ ID NO: 11) are subunits of MTERF1 without its mitochondrial transfer peptide (MTERF11-57; SEQ ID NO: 37) that either lack only the first […] N-terminal amino acids (MTERF58-72; SEQ ID NO: 39) or additionally, also lack the first (MTERF173-98; SEQ ID NO: 104) or both the first and second (MTERF1104-134; SEQ ID NO: 106) mterf motifs (FIG. 5A). The removal of N-terminal domains reduces the genetic footprint of a HumTAP (FIG. 5B). These constructs were co-transfected into HEK293 cells with the reporter construct containing 5×RE without a spacer in its promoter (SEQ ID NO: 48).\nIn addition to RelA430-551 (termed “v1”), the inventors tested three alternative subsequences: v2) RelA342-551 (SEQ ID NO: 29), which contains all transactivation domains as annotated on UniProt Q04206; v3) RelA361-551 (SEQ ID NO: 27), which is identical to the peptide used in the construction of PIT2 [2]; and v4) RelA521-551 (SEQ ID NO: 31), which constitutes only the transactivation domain 1 (TA1). The protein domains WW (SEQ ID NO: 21), KRAB of ZNF473 (SEQ ID NO: 23), Nuc-rec-co-Act (SEQ ID NO: 25), LMSTEN (SEQ ID NO: 19), and FoxoTAD (SEQ ID NO: 17) were recently identified as strong transactivators. To assess their functionality in the HumTAP context, the inventors created fusion proteins between each of them and MTERF158-399 (SEQ ID NO: 1) (FIG. 9A).\nUpon co-transfection of HEK293 cells with plasmids encoding pEF1a-driven expression of the fusion HumTAPs, a Response Element-driven mCerulean reporter protein, and a mCherry transfection control, all peptides derived from RelA except TA1 mediated high levels of reporter gene expression. […]",
  "data": [
    {"molecule": "SEQ ID NO: 52: MTERF158-399 fused to chimeric TAD consisting of FoxoTAD, LMSTEN, and TA1 (protein) HEKFPSDLDLDMFNGSLECDMESIIRSELMDADGLDFNFDSEAQNVSSHVPYPVALHVNIVNVPQPAAAAIQRHYNDEDPEKEKRIKELELLLMSTENELKGQQVLPTQNHTCSYPGWHSTPGLPNGLLSGDEDFSSIADMDFSALLSQISS", "values": [
      {"measurement": "reporter gene expression relative to RelA430-551", "setting": "fused to MTERF158-399, FIG. 9C", "result": 3.7, "unit": "times"}
    ]},
    {"molecule": "MTERF1135-399: MTERF1 lacking N-term and first and second Mterf motif, fused to RelA430-551 (protein, listed as Homo sapiens) TPENLSKRWDLWRKIVTSDLEIVNILERSPESFFRSNNNLNLENNIKFLYSVGLTRKCLCRLLTNAPRTFSNSLDLNKQMVEFLQAAGLSLGHNDPADFVRKIIFKNPFILIQSTKRVKANIEFLRSTFNLNSEELLVLICGPGAEILDLSNDYARRSYANIKEKLFSLGCTEEEVQKFVLSYPDVIFLAEKKFNDKIDCLMEENISISQIIENPRVLDSSISTLKSRIKELVNAGCNLSTLNITLLSWSKKRYEAKLKKLSRFA", "values": [
      {"measurement": "functionality of synTF with truncated DBD", "setting": "FIG. 9E", "result": "non-functional"},
      {"measurement": "output expression / transcriptional activation", "result": "complete loss of transcriptional activation"}
    ]},
    {"molecule": "SEQ ID NO: 54: MTERF158-399 fused to FoxoTAD with LMSTEN (protein) HEKFPSDLDLDMFNGSLECDMESIIRSELMDADGLDFNFDSEAQNVSSHVPYPVALHVNIVNVPQPAAAAIQRHYNDEDPEKEKRIKELELLLMSTENELKGQQVLPTQNHTCSYPGWHST", "values": [
      {"measurement": "reporter (mCerulean) expression", "result": "smaller and stronger than the benchmark"}
    ]},
    {"molecule": "MTERF1104-399: MTERF1 lacking N-term and first Mterf motif, fused to RelA430-551 (protein, listed as Homo sapiens) EQDLKMFLLSKGASKEVIASIISRYPRAITRTPENLSKRWDLWRKIVTSDLEIVNILERSPESFFRSNNNLNLENNIKFLYSVGLTRKCLCRLLTNAPRTFSNSLDLNKQMVEFLQAAGLSLGHNDPADFVRKIIFKNPFILIQSTKRVKANIEFLRSTFNLNSEELLVLICGPGAEILDLSNDYARRSYANIKEKLFSLGCTEEEVQKFVLSYPDVIFLAEKKFNDKIDCLMEENISISQIIENPRVLDSSISTLKSRIKELVNAGCNLSTLNITLLSWSKKRYEAKLKKLSRFA", "values": [
      {"measurement": "output expression / transcriptional activation", "result": "reduced but not abolished"},
      {"measurement": "reporter expression, times less than with MTERF158-399", "setting": "FIG. 9E", "result": "~ 1.5 times"}
    ]},
    {"molecule": "MTERF1104-399 with FoxoTAD: FoxoTAD: MTERF1104-399 (SEQ ID NO: 9) fused to FoxoTAD: FoxoTAD (SEQ ID NO: 33) (protein, listed as Homo sapiens) EQDLKMFLLSKGASKEVIASIISRYPRAITRTPENLSKRWDLWRKIVTSDLEIVNILERSPESFFRSNNNLNLENNIKFLYSVGLTRKCLCRLLTNAPRTFSNSLDLNKQMVEFLQAAGLSLGHNDPADFVRKIIFKNPFILIQSTKRVKANIEFLRSTFNLNSEELLVLICGPGAEILDLSNDYARRSYANIKEKLFSLGCTEEEVQKFVLSYPDVIFLAEKKFNDKIDCLMEENISISQIIENPRVLDSSISTLKSRIKELVNAGCNLSTLNITLLSWSKKRYEAKLKKLSRFAHEKFPSDLDLDMFNGSLECDMESIIRSELMDADGLDFNFDSHEKFPSDLDLDMFNGSLECDMESIIRSELMDADGLDFNFDS", "values": [
      {"measurement": "strength / reporter gene expression, fold over MTF", "setting": "chimeric TAD fused to MTERF1104-399, FIG. 9F", "result": "~ 1.5 fold"}
    ]},
    {"molecule": "SEQ ID NO: 194: MTERF158-399 fused to three TA1 domains (protein) PGLPNGLLSGDEDFSSIADMDFSALLSQISSPGLPNGLLSGDEDFSSIADMDFSALLSQISSPGLPNGLLSGDEDFSSIADMDFSALLSQISS", "values": [
      {"measurement": "reporter (mCerulean) expression", "result": "further increased output expression"}
    ]},
    {"molecule": "SEQ ID NO: 58: MTERF158-399 fused to FoxoTAD with TA1 (protein) HEKFPSDLDLDMFNGSLECDMESIIRSELMDADGLDFNFDSPGLPNGLLSGDEDFSSIADMDFSALLSQISS", "values": [
      {"measurement": "reporter (mCerulean) expression", "result": "smaller and stronger than the benchmark"}
    ]},
    {"molecule": "MTERF173-399: MTERF1 lacking N-term, fused to RelA430-551 (protein, listed as Homo sapiens) EDLLKNLLTMGVDIDMARKRQPGVFHRMITNEQDLKMFLLSKGASKEVIASIISRYPRAITRTPENLSKRWDLWRKIVTSDLEIVNILERSPESFFRSNNNLNLENNIKFLYSVGLTRKCLCRLLTNAPRTFSNSLDLNKQMVEFLQAAGLSLGHNDPADFVRKIIFKNPFILIQSTKRVKANIEFLRSTFNLNSEELLVLICGPGAEILDLSNDYARRSYANIKEKLFSLGCTEEEVQKFVLSYPDVIFLAEKKFNDKIDCLMEENISISQIIENPRVLDSSISTLKSRIKELVNAGCNLSTLNITLLSWSKKRYEAKLKKLSRFA", "values": [
      {"measurement": "output expression / transcriptional activation", "result": "reduced but not abolished"},
      {"measurement": "reporter expression, times less than with MTERF158-399", "setting": "FIG. 9E", "result": "~ 1.5 times"}
    ]},
    {"molecule": "SEQ ID NO: 56: MTERF158-399 fused to LMSTEN with TA1 (protein) EAQNVSSHVPYPVALHVNIVNVPQPAAAAIQRHYNDEDPEKEKRIKELELLLMSTENELKGQQVLPTQNHTCSYPGWHSTPGLPNGLLSGDEDFSSIADMDFSALLSQISS", "values": [
      {"measurement": "reporter (mCerulean) expression", "result": "smaller and stronger than the benchmark"}
    ]},
    {"molecule": "SEQ ID NO: 196: MTERF158-399 fused to two copies of the LMSTEN domain (protein) EAQNVSSHVPYPVALHVNIVNVPQPAAAAIQRHYNDEDPEKEKRIKELELLLMSTENELKGQQVLPTQNHTCSYPGWHSTEAQNVSSHVPYPVALHVNIVNVPQPAAAAIQRHYNDEDPEKEKRIKELELLLMSTENELKGQQVLPTQNHTCSYPGWHST", "values": [
      {"measurement": "mCerulean/reporter expression, fold more than one copy of the TAD", "setting": "two copies of TAD fused to MTERF158-399, Example 4, FIG. 9C", "result": "~ 2.7 fold"}
    ]}
  ]
}
